± gives the standard error. For some assays here: Fewer inactive variants are shown than the library holds.
B1: glmS ribozyme (parent)
chain: AUAAAAGCGCCAGAACUACAGAAAUGUAGUUGACGAGGAGGAGGUUUAUCGAAUUUUCGGCGGAUGCCUCCAAA

Legend:
Conditions in all cases: with glucosamine-6-phosphate
glucosamine-6-phosphate [1] = variants of: B1; test: kcat; higher = faster cleavage; RNA array
How it was run: (§1)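 Barcoded ribozyme variants on sequenced MiSeq chips were transcribed in situ by E. coli RNA polymerase and followed at 37 °C through a hybridised Cy3 probe. Glucosamine-6-phosphate at 40 μM to 10 mM in HEPES/KCl/Mg(OAc)2 buffer was flowed in, and tiles were imaged over ~14 h. Signals were normalised to baseline and to non-cleaving reference variants, and per-tile medians were fit to one- or two-exponential decays to give kobs. Weighted Michaelis–Menten fits across concentrations gave kcat and KM.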

glucosamine-6-phosphate [2] = variants of: B1; test: self-cleavage kobs at 40 uM GlcN6P; higher = faster cleavage; RNA array
How it was run: as §1

glucosamine-6-phosphate [3] = variants of: B1; test: self-cleavage kobs at 2500 uM GlcN6P; higher = faster cleavage; RNA array
How it was run: as §1

glucosamine-6-phosphate [4] = variants of: B1; test: self-cleavage kobs at 10000 uM GlcN6P; higher = faster cleavage; RNA array
How it was run: as §1

glucosamine-6-phosphate [5] = variants of: B1; test: self-cleavage kobs at 640 uM GlcN6P; higher = faster cleavage; RNA array
How it was run: as §1

glucosamine-6-phosphate [6] = variants of: B1; test: self-cleavage kobs at 160 uM GlcN6P; higher = faster cleavage; RNA array
How it was run: as §1

glucosamine-6-phosphate [7] = variants of: B1; test: KM; higher = weaker cofactor use; RNA array
How it was run: as §1

## AUAAAAGCGCCAGAACUACAGAAAUGUAGGUGACGGGGAGGAGGUUUAUCGAAUUUUCGGCGGAUGCCUCGAAA
glucosamine-6-phosphate [1]
  kcat: 1.69e-05 ± 3.9e-06 s⁻¹
glucosamine-6-phosphate [2]
  self-cleavage kobs at 40 uM GlcN6P: < 1e-05 s⁻¹
glucosamine-6-phosphate [3]
  self-cleavage kobs at 2500 uM GlcN6P: < 1e-05 s⁻¹
glucosamine-6-phosphate [4]
  self-cleavage kobs at 10000 uM GlcN6P: < 1e-05 s⁻¹

## AUAAAAGCGCCAGAACUACAGAAAUGUAGCUGACGAGGAGGAGGUUUAUCGAAUUGUCGGCGGAUGCCUCCAAA
glucosamine-6-phosphate [1]
  kcat: 0.000308 ± 7.9e-05 s⁻¹
glucosamine-6-phosphate [5]
  self-cleavage kobs at 640 uM GlcN6P: 8.86e-05 ± 1.3e-05 s⁻¹
glucosamine-6-phosphate [3]
  self-cleavage kobs at 2500 uM GlcN6P: 0.000135 ± 1.8e-05 s⁻¹
glucosamine-6-phosphate [4]
  self-cleavage kobs at 10000 uM GlcN6P: 0.000296 ± 3.5e-05 s⁻¹

## AUAAAAGCGCCAGAACUACAGAAAUGUAGGUGACGAGGAGGAGGUUUAUCGAAUUUUCGGCGGAUGACUCCAAA
glucosamine-6-phosphate [1]
  kcat: 0.00145 ± 0.00047 s⁻¹
glucosamine-6-phosphate [2]
  self-cleavage kobs at 40 uM GlcN6P: 6.13e-05 ± 1.3e-05 s⁻¹
glucosamine-6-phosphate [6]
  self-cleavage kobs at 160 uM GlcN6P: 0.000175 ± 3.3e-05 s⁻¹
glucosamine-6-phosphate [5]
  self-cleavage kobs at 640 uM GlcN6P: 0.000561 ± 9.1e-05 s⁻¹
glucosamine-6-phosphate [3]
  self-cleavage kobs at 2500 uM GlcN6P: 0.00063 ± 0.00017 s⁻¹
glucosamine-6-phosphate [4]
  self-cleavage kobs at 10000 uM GlcN6P: 0.00188 ± 0.00029 s⁻¹

## AUAAAAGCGCCAGAACUACAGAAAUGUAGGUGACGAGGUGGAGGUUUAUCGAAUUUUCGGCGGAUGCCUCCAAA
glucosamine-6-phosphate [1]
  kcat: 0.00794 ± 0.0035 s⁻¹
glucosamine-6-phosphate [2]
  self-cleavage kobs at 40 uM GlcN6P: 0.000127 ± 2.3e-05 s⁻¹
glucosamine-6-phosphate [6]
  self-cleavage kobs at 160 uM GlcN6P: 0.000455 ± 8.4e-05 s⁻¹
glucosamine-6-phosphate [5]
  self-cleavage kobs at 640 uM GlcN6P: 0.000857 ± 0.00016 s⁻¹
glucosamine-6-phosphate [3]
  self-cleavage kobs at 2500 uM GlcN6P: 0.00224 ± 0.00096 s⁻¹
glucosamine-6-phosphate [4]
  self-cleavage kobs at 10000 uM GlcN6P: 0.00645 ± 0.00095 s⁻¹

## AUAAAAGCGCCAGAACUACAGAAAUGUAGGUGACGAGGAGGAGGUUUGUCGAAUUUUCGGCGGAUGCCUCCAAA
glucosamine-6-phosphate [1]
  kcat: < 1e-05 s⁻¹
glucosamine-6-phosphate [2]
  self-cleavage kobs at 40 uM GlcN6P: < 1e-05 s⁻¹
glucosamine-6-phosphate [6]
  self-cleavage kobs at 160 uM GlcN6P: < 1e-05 s⁻¹

## AUAAAAGCGCCAGAACUACAGAAAUGUAGGUGACGAGGAGGAGGUUUAUUGAAUUUUCGGCGGAUGCCUCCAAA
glucosamine-6-phosphate [1]
  kcat: < 1e-05 s⁻¹
glucosamine-6-phosphate [6]
  self-cleavage kobs at 160 uM GlcN6P: < 1e-05 s⁻¹

## AUAAAAGCGCCAGAACUACAGAAAUGUAGGUGACGAGGAGGAGGUUUAUCGAAUUUUCGGCGGAUGCCUCCAAA
glucosamine-6-phosphate [1]
  kcat: 0.0156 ± 0.0046 s⁻¹
glucosamine-6-phosphate [7]
  KM: 2400 ± 840 µM
glucosamine-6-phosphate [2]
  self-cleavage kobs at 40 uM GlcN6P: 0.000284 ± 5.6e-06 s⁻¹
glucosamine-6-phosphate [6]
  self-cleavage kobs at 160 uM GlcN6P: 0.000809 ± 3e-05 s⁻¹
glucosamine-6-phosphate [5]
  self-cleavage kobs at 640 uM GlcN6P: 0.00344 ± 0.00013 s⁻¹
glucosamine-6-phosphate [3]
  self-cleavage kobs at 2500 uM GlcN6P: 0.00622 ± 0.00028 s⁻¹
glucosamine-6-phosphate [4]
  self-cleavage kobs at 10000 uM GlcN6P: 0.0157 ± 0.00058 s⁻¹

## AUAAAAGCGCCAGAACUACAGAAAUGUAGCUGACGAGGAGGAGGUUUAUCGAAUUUUCGGCGGAUGCCCCCAAA
glucosamine-6-phosphate [1]
  kcat: 0.00014 ± 1.4e-05 s⁻¹
glucosamine-6-phosphate [7]
  KM: 591 ± 210 µM
glucosamine-6-phosphate [6]
  self-cleavage kobs at 160 uM GlcN6P: 3.85e-05 ± 1.7e-05 s⁻¹
glucosamine-6-phosphate [5]
  self-cleavage kobs at 640 uM GlcN6P: 6.58e-05 ± 1e-05 s⁻¹
glucosamine-6-phosphate [3]
  self-cleavage kobs at 2500 uM GlcN6P: 0.000129 ± 1.3e-05 s⁻¹
glucosamine-6-phosphate [4]
  self-cleavage kobs at 10000 uM GlcN6P: 0.000122 ± 1.4e-05 s⁻¹
